According to the Immune Epitope Database (IEDB):
Each block holds one sequence with its values, some of them ahead of it.

Legend:
[1] = molecular target: HLA-A*03:01; experiment: IEDB peptide-MHC binding, purified MHC/direct/fluorescence; filed as Kd, often an IC50 or EC50 that approximates it; ≥ and ≤ were set here for values at or beyond the usual limits of such assays
[2] = molecular target: HLA-A*31:01; experiment: as above
[3] = molecular target: HLA-A*32:01; experiment: IEDB peptide-MHC binding, purified MHC/competitive/radioactivity; filed as Kd, often an IC50 or EC50 that approximates it; ≥ and ≤ were set here for values at or beyond the usual limits of such assays
[4] = molecular target: HLA-A*24:02; experiment: as above
[5] = molecular target: HLA-A*01:01; experiment: as above
[6] = molecular target: HLA-A*29:02; experiment: as above
[7] = molecular target: HLA-A*30:02; experiment: as above; settings: source organism: SARS coronavirus Tor2
[8] = molecular target: HLA-A*23:01; experiment: as above
[9] = molecular target: HLA-A*26:01; experiment: as above
[10] = molecular target: HLA-B*44:02; experiment: as above
[11] = molecular target: HLA-B*08:01; experiment: as above
[12] = molecular target: HLA-B*44:03; experiment: as above
[13] = molecular target: HLA-B*07:02; experiment: IEDB peptide-MHC binding, purified MHC/direct/fluorescence; filed as Kd, often an IC50 or EC50 that approximates it; ≥ and ≤ were set here for values at or beyond the usual limits of such assays
[14] = molecular target: HLA-B*40:01; experiment: as above; settings: source organism: SARS-CoV1
[15] = molecular target: HLA-A*01:01; experiment: as above; settings: source organism: SARS-CoV1
[16] = molecular target: HLA-A*11:01; experiment: as above
[17] = molecular target: HLA-B*15:01; experiment: as above; settings: source organism: SARS-CoV1
[18] = molecular target: HLA-A*02:01; experiment: as above; settings: source organism: Homo sapiens
[19] = molecular target: HLA-A*30:01; experiment: IEDB peptide-MHC binding, purified MHC/competitive/radioactivity; filed as Kd, often an IC50 or EC50 that approximates it; ≥ and ≤ were set here for values at or beyond the usual limits of such assays; settings: source organism: Dengue virus 2 Jamaica/1409/1983
[20] = molecular target: HLA-A*11:01; experiment: as above; settings: source organism: Dengue virus 4 Philippines/H241/1956
[21] = molecular target: HLA-A*26:01; experiment: IEDB peptide-MHC binding, purified MHC/competitive/fluorescence; filed as Kd, often an IC50 or EC50 that approximates it; ≥ and ≤ were set here for values at or beyond the usual limits of such assays; settings: source organism: Bacillus cereus G9241
[22] = source organism: Francisella tularensis subsp. holarctica LVS
[23] = source organism: SARS coronavirus Tor2
[24] = source organism: Dengue virus 4 Philippines/H241/1956
[25] = source organism: Vaccinia virus WR
[26] = source organism: Dengue virus 3 Singapore/8120/1995
[27] = source organism: Dengue virus 2 Jamaica/1409/1983
[28] = source organism: Dengue virus 1 Brazil/97-11/1997
[29] = source organism: Mammarenavirus guanaritoense
[30] = source organism: Dengue virus 3 Martinique/1243/1999

Sequence: MFMMIFHFV
Kd [1, 22]: ≥ 20000 nM | Kd [2, 22]: 12000 nM

Sequence: ISGLFPVSI
Kd ([3]; source organism: Dengue virus 2 Peru/IQT2913/1996): 1260 nM

Sequence: FYGGWHNML
Kd [4, 23]: ≥ 27900 nM | Kd [5, 23]: ≥ 78100 nM | Kd [6, 23]: 15500 nM | Kd [7]: ≥ 100000 nM | Kd [8, 23]: 5180 nM | Kd [9, 23]: ≥ 77900 nM

Sequence: NEELITEQM
Kd [10, 24]: 281 nM

Sequence: FPRYHSIEL
Kd [11, 25]: 0.492 nM

Sequence: VEGVSGGAW
Kd [10, 24]: 151 nM | Kd [12, 24]: 114 nM

Sequence: SWKLEKASF
Kd [4, 26]: 153 nM

Sequence: NVHTWTEQY
Kd [5, 27]: 6040 nM

Sequence: NARLKPLDI
Kd [11, 25]: 0.813 nM

Kd ([13]; source organism: Homo sapiens): 2100 nM
Sequence: APRALLLLL

Sequence: RGEDGCWYGM
Kd [3, 27]: 11000 nM

Sequence: VQTVRTQVY
Kd [14]: ≥ 168000 nM | Kd [15]: ≥ 24700 nM | Kd ([16]; source organism: SARS-CoV1): ≥ 44700 nM | Kd ([13]; source organism: SARS-CoV1): 16700 nM | Kd ([1]; source organism: SARS-CoV1): 6620 nM | Kd [17]: 144 nM

Sequence: VEGVSGGSW
Kd [10, 27]: 220 nM | Kd [12, 27]: 111 nM

Sequence: YWVSCGTGNI
Kd [8, 28]: 165 nM

Kd [18]: 15800 nM | Kd ([16]; source organism: Homo sapiens): 1440 nM | Kd ([1]; source organism: Homo sapiens): 257 nM | Kd ([2]; source organism: Homo sapiens): 1960 nM
Sequence: YLGSWATGK

Sequence: TWAFCEVLTL
Kd [4, 24]: 2230 nM | Kd [8, 24]: 237 nM

Sequence: CYSQVNPLTL
Kd [4, 28]: 144 nM | Kd [8, 28]: 189 nM

Sequence: ITEMGRLPTF
Kd [5, 27]: 17500 nM | Kd [19]: 9680 nM

Sequence: SYLRKFSAL
Kd [11, 25]: 5.98 nM

Sequence: NTNPIQLSSY
Kd [4, 23]: ≥ 70300 nM | Kd [5, 23]: 105 nM | Kd [6, 23]: 966 nM | Kd [7]: 74.2 nM | Kd [8, 23]: ≥ 70000 nM | Kd [9, 23]: 344 nM

Sequence: KHMIAGVLF
Kd [4, 26]: 683 nM

Sequence: FFLPIFSEF
Kd [4, 29]: 32.4 nM | Kd [6, 29]: 0.921 nM | Kd [8, 29]: 0.198 nM

Sequence: LEENMDVEIW
Kd [10, 28]: 269 nM | Kd [12, 28]: 126 nM

Sequence: SALTLHWFRK
Kd [20]: 18.4 nM | Kd [3, 24]: 1940 nM

Sequence: REDLWCGSLI
Kd [10, 24]: 256 nM | Kd [12, 24]: 401 nM

Sequence: DTIETLMLLA
Kd [9, 28]: 228 nM

Sequence: TSKKRSWPLN
Kd [3, 27]: ≥ 38600 nM | Kd [19]: 4530 nM

Sequence: DTITYKCPLL
Kd [9, 27]: 2100 nM | Kd [19]: 1140 nM

Sequence: MAGPLVAGGL
Kd [11, 30]: 1070 nM

Sequence: YYMATLKNV
Kd [4, 24]: 74.2 nM | Kd [8, 24]: 319 nM

Sequence: LMYNLLTII
Kd ([3]; source organism: Vaccinia virus Copenhagen): 30.2 nM

Sequence: MIMYLVLGI
Kd [3, 25]: 97.9 nM

Sequence: SDMQKFTIL
Kd [11, 25]: 40.9 nM

Sequence: RFFLPIFSEF
Kd [4, 29]: 10.2 nM | Kd [6, 29]: 1.03 nM | Kd [8, 29]: 0.232 nM

Sequence: EKMETLQRKY
Kd [9, 27]: ≥ 20100 nM

Sequence: TPMLRHTIE
Kd [11, 30]: 3.36 nM

Sequence: RKDIQQWEPS
Kd [3, 27]: 3870 nM

Sequence: ELSQSMFHY
Kd [21]: 250 nM

Sequence: VIWILIVAI
Kd [3, 25]: 198 nM
